Assay results taken from patent publication US20060105398A1, “Methods of identifying compounds that modulate igg mediated mast cell activation” (Rigel Pharmaceuticals, Inc, priority 2002, published 2006).

Test system: FcγRI activation of cultured human mast cells (CHMC)
Assay: Priming of mast cells, tryptase activity in supernatant after Fcγ activation with IgG and anti-IgG
Format: cell-based
Conditions: IL-4 absent or present in priming solution; IgE primed mast cells; human IgG3 and rabbit anti-human IgG (FIG. 1A, 1B)
Protocol: Priming of mast cells is carried out by seeding the cells on Day 0 at 3.5×10^5 cells/mL in culture media plus SCF (200 ng/mL), IL-6 (200 ng/mL), IL-4 ([…]), IgE (200 ng/mL), and IgG3 (200 ng/mL).
Activation or stimulation of cells is done on Day 3 by centrifuging the cells down and resupending them at 1.5×10^3 cells/mL in modified tyrodes (MT: 137 mM NaCl, 2.7 mM KCI, 1.8 mM CaCl2, 5.6 mM glucose, 20 mM Hepes (pH 7.4), 0.1% Bovine Serum Albumin (Sigma A4503)), with or without rabbit anti-human IgG (200 ng/mL final conc.), for 30 minutes at 37° C. (see Demo, S. D., Cytometry. 36(4):340-348 (1999)).
Degranulation is measured by centrifuging down the sample, and harvesting the supernatant and measuring tryptase activity. The tryptase assays are performed under standard conditions (25 uL supernatant added to 100 uL of 10 uM tryptase substrate [20 mM stock solution of Z-Ala-Lys-Arg-AMC2TFA (Enzyme systems Products, Catalog No. AMC-246) diluted 1:2000 in tryptase assay buffer [[…] (pH 7.5), 10% w/v Glycerol, […], 0.01% NaN3] for 30 min at 37° C. The reactions are read in plate reader (Wallac, Victor 2, 1420 Multilabel Counter).

With “IL-4: cytokine added to the priming solution (20 ng/mL)” the “effect on activation (tryptase activity in the supernatant)” value was “did not appear to substantially affect activation”.
